Experimental data from paper PMC9177416, “Discovery of non-squalene triterpenes” (Nature, 2022).

Biological target: the molecule itself
Test: cryo-EM structure; non-cross-linked full-length MpMS, unliganded, 50 uM in 20 mM HEPES pH 7.5, 150 mM NaCl, 1 mM DTT; only the PT domain reconstructed; map resolution 3.17 Å

B1: Macrophomina phaseolina macrophomene synthase (enzyme, Macrophomina phaseolina MS6, UniProt K2SUY0 1-698, looked up)
chain: MCNTKCYNTLAKMTVITEPAMEYMYSVPLDESEYDKCGFCQDPRYRPRRHKDQHLARAGSAKAKELCEALIGVYPRPTCESAVGHSIALVMPECMPGRVEAMGEFMESIFYMDNIAESGSQQDTGNLGTEWANDMETGPTTSVNSNTGAKQVMAKLALQLLSIDPVCAGNVMKAWKEWAAGFAKPRRFDSIEQYIDYRLVDSGAIVAVHLMNFGMGLDISVEELREVSDIVNHAGKALSYQNDFFSFNYEHDMFVKLPDSIGIANAVFVLAETEGLSLAEAKERVKELAKEHEDAVLRLKDEVESKVSYKLRICLEGLVDMVVGNLVWSASCDRYSSYRREKHQMELPIRIQGPPTPPQEPVYEKATLPNGKQLDAPTESSGKDLSDGVATLSGDEPVLGDEIVSAPIKYLESLPSKGFREAIIDGMNGWLNLPARSVSIIKDVVKHIHTASLLCDDIEDSSPLRRGQPSAHIIFGVSQTVNSTSYLWTLAIDRLSELSSPKSLRIFIDEVRKMQIGQSFDLHWTAALQCPSEEEYLSMIDMKTGGLFHLLIRLMIAESPRKVDMDFSGLVSMTGRYFQIRDDLSNLTSEEYENQKGYCEDLDEGKYSLPLIHALKHTKNKVQLESLLIQRKTQGGMTLEMKRLAIQIMKEAGSLEHTRKVVLELQDAVHRELAKLEEAFGQENYVIQLALERLRIKA
notes: codon-optimized synthetic gene cloned NdeI/EcoRI into pET28a (pRC088); Used without cross-linking in one cryo-EM sample and cross-linked with 0.06% glutaraldehyde in another; Only the PT domain (plus one TC helix in the cross-linked sample) could be modelled; also called MpMS; MPH_02178; source: E. coli BL21(DE3), purified (Ni-NTA, Resource Q anion exchange, Superose 6 size exclusion)
stoichiometry N: 6
